# B1: abciximab (antibody, chains of the INN, looked up, V domains shown)
# VH: EVQLQQSGTVLARPGASVKMSCEASGYTFTNYWMHWVKQRPGQGLEWIGAIYPGNSDTSYIQKFKGKAKLTAVTSTTSVYMELSSLTNEDSAVYYCTLYDGYYVFAYWGQGTLVTVSA
# VL: EIVLTQSPVTLSVTPGDSVSLSCRASRDISNNLHWFQQTSHESPRLLIKYASQSMSGIPSRFSGSGSGTDFTLSINSVETEDFGMYFCQQTNSWPYTFGGGTKLEIK
# modifications: Fab
# B2: tPA: tissue plasminogen activator (tPA, Alteplase, Genentech), inducer of fibrinolysis (protein, UniProt P00750 36-562, looked up)
# Tissue-type plasminogen …: SYQVICRDEKTQMIYQQHQSWLRPVLRSNRVEYCWCNSGRAQCHSVPVKSCSEPRCFNGGTCQQALYFSDFVCQCPEGFAGKCCEIDTRATCYEDQGISYRGTWSTAESGAECTNWNSSALAQKPYSGRRPDAIRLGLGNHNYCRNPDRDSKPWCYVFKAGKYSSEFCSTPACSEGNSDCYFGNGSAYRGTHSLTESGASCLPWNSMILIGKVYTAQNPSAQALGLGKHNYCRNPDGDAKPWCHVLKNRRLTWEYCDVPSCSTCGLRQYSQPQFRIKGGLFADIASHPWQAAIFAKHRRSPGERFLCGGILISSCWILSAAHCFQERFPPHHLTVILGRTYRVVPGEEEQKFEVEKYIVHKEFDDDTYDNDIALLQLKSDSSRCAQESSVVRTVCLPPADLQLPDWTECELSGYGKHEALSPFYSERLKEAHVRLYPSSRCTSQHLLNRTVTDNMLCAGDTRSGGPQANLHDACQGDSGGPLVCLNDGRMTLVGIISWGLGCGQKDVPGVYTKVTNYLDWIRDNMRP
# modifications: alteplase
# Key:
# Type in all cases: cell-based, human
# citrated blood [1] = assay: T2MR clot strength (DiffT2), calcium and kaolin activation of abciximab-treated citrated blood; details: abciximab 4 or 8 μg/ml added ex vivo; 13 minutes after activation; 3 healthy donors
# Procedure: (§1) The DiffT2 value was calculated by taking the difference between the upper and middle T2 values in the T2MR signature at a time point 13 minutes after activation. Data are shown here using samples from 3 healthy donors where clot strength was adjusted by ex vivo addition of abciximab (ReoPro) at a level of 0, 4, or 8 μg/ml prior to measurement. All samples containing abciximab were at DiffT2 values of <100 ms or TEG MA values less than 40.
# (§2) A 0.5 mg/ml solution of abciximab was prepared by diluting the stock 10 mg/5 ml solution by 1:4 in saline. The abciximab-treated blood samples were incubated for at least 5 min prior to clotting. Clotting was initiated by adding 2 μL 0.2 M CaCl2 and 2 μL TEG kaolin to 34 μL of abciximab-treated blood sample. To compare the T2MR signal to TEG MA, a DiffT2 parameter was calculated by taking the difference in T2 between the upper and middle peaks at a time point 13 min after adding calcium and kaolin. The TEG MA values were measured on the same samples following manufacturer instructions.
# (§3) For comparison between T2MR and TEG, calcium and kaolin activation of citrated blood was used and normal donor samples were treated with various amounts of abciximab, an inhibitor of the platelet glycoprotein αIIbβ3 receptor that binds fibrin and is essential for clot contraction.
# citrated whole blood [2] = assay: T2In intrinsic assay for platelet activity, ReoPro titration
# Procedure: Citrated whole blood from normal donors was spiked with varying concentrations of the platelet inhibitor ReoPro (Abcixirnab). 5 μL of ellagic acid solution with CaCl2 was used to activate 36.7 μL of blood with or without ReoPro inhibition. T2MR data was collected for 35 minutes. Addition of platelet inhibitor had no effect on T2MR measured clot time or % deltaT2. […] There was some donor to donor differences in responsiveness to ReoPro.
# citrated blood [3] = assay: Thromboelastography maximum amplitude (TEG MA) on the same abciximab-treated samples; details: abciximab 4 or 8 μg/ml added ex vivo; 3 healthy donors
# Procedure: as §1, §2, §3
# [4] = system: re-calcified citrated whole blood; assay: T2MR fibrinolysis of thrombin-clotted re-calcified citrated blood after tPA addition
# Procedure: In one embodiment, blood clotting was initiated by addition of 2 μL of a 0.2 M CaCl2 solution and 2 μL of thrombin (Sigma-Aldrich, St. Louis, Mo., final concentration 0.1-3.0 U/ml) to 34 μL of blood in a 200 μL PCR tube (Eppendorf, Hauppauge, N.Y.). All components were pre-warmed for 1 min at 37° C. before mixing. Samples were mixed by three aspiration and dispersion cycles using a pipette, then put into the T2MR reader for measurement. Typical run length was 30 min with a 10 sec sampling rate. For some experiments, data collection time was extended to 1 hr.
# To establish T2MR signatures for fibrinolysis, tissue plasminogen activator (tPA, Alteplase, Genentech, South San Francisco, Calif.) was added to samples clotted by thrombin. Blood clotting was initiated as described above, and the sample was incubated for […] to allow for complete clot contraction. Then, 0.5-1 μM tPA was added to clotted and contracted samples. Care was taken not to disturb clots, which were usually attached to the tube wall. The pipette tip was carefully placed into the visible serum layer on the tube side opposite to the contracted clot, and 3 μL of tPA solution was added with a single dispensing of the pipettor. The tPA solutions were made from a stock solution prepared according to manufacturer instructions using 0.15 M sodium chloride, pH 7.4.
# In one embodiment, the dependencies of the T2MR signals during clotting of re-calcified citrated blood samples from healthy donors initiated by adding 3 U/ml thrombin was measured. Thrombin activates platelets and cleaves fibrinogen to form a three-dimensional fibrin network stabilized by factor XIIIa. Addition of thrombin led to rapid formation of a gelatinous meshwork that filled the sample volume accompanied by a small, rapid decrease in the T2MR signal over tens of seconds due to the sample transitioning from a liquid to gel state. In the initial gel state, only one relaxation rate was observed (FIG. 2, part a), reflecting uniform distribution of erythrocytes and other blood components. Approximately four minutes after thrombin addition, the T2MR signal split into two peaks representing distinct water populations in slow exchange with each other. […]
# We then assessed the sensitivity of the T2MR platform to fibrinolysis by adding tissue-type plasminogen activator (tPA) to the clotted samples 30 minutes after thrombin.
# The compartment generating the signal in FIG. 2, part b, at 300 ms that dropped to 200 ms was assessed by testing two conditions: (1) re-calcified citrated whole blood activated with thrombin to form a contracted clot and (2) re-calcified citrated whole blood activated with thrombin followed by addition of tPA. After incubation, samples were analyzed before and after mixing with a pipette to re-suspend unbound erythrocytes. […]
# citrated whole blood [5] = assay: T2In T2MR clotting time, intrinsic pathway activator (ellagic acid); details: T2In, 3 donors, different tPA concentrations, with or without aprotinin
# Description: In another embodiment a coagulopathy panel is used with an intrinsic activator such as ellagic acid. The common range of clotting time is often between 100 and 120 seconds for normal blood. However, it can be 22-30 seconds, 30-44 seconds, 44-60 seconds, 60-80 seconds, 80-100 seconds, up to 2 times to 4 times the range of normal T2MR clotting times for the extrinsic activator. The abnormal clotting time ranges are above or below the normal range. The total range easily measured is 8-300 seconds though a measurement up to or beyond 1000 seconds could be performed with modified acquisition. If aprotinin is added in addition to intrinsic activator, clotting times can often be from 110.9-151.0 seconds in normal blood.
# The general intrinsic activator protocol is as follows (T2In panel): an intrinsic activator solution was prepared by mixing tissue factor reagent with CaCl2. To 36.7 μL of citrated whole blood (warmed to approximately 37° C. for 3 minutes and mixed) was added 5 μL of the intrinsic activator solution (also been warmed to approximately 37° C. for one minute). The resulting solution was mixed and subjected to T2 measurements for 50 minutes. […] The T2MR of the sample was measured for 30 minutes.
# The T2Ex or the T2In protocols were also used with the addition of aprotinin (T2Ex-A and T2In-A) respectively. […] The sample was mixed and read in the T2reader. […]
# citrated whole blood [6] = assay: T2In platelet activity and fibrinolysis measurement with tPA or aprotinin; details: ellagic acid with CaCl2; tPA 0, 2 or 4 nM or aprotinin control; 65 min
# Procedure: The T2Ex or the T2In protocols were also used with the addition of aprotinin (T2Ex-A and T2In-A) respectively. For the intrinsic pathway measurement (T2In), intrinsic activator solution was prepared by mixing ellagic acid stock and CaCl2. For the intrinsic pathway measurement that includes aprotinin (T2In-A), add 41.7 μL of a 1 mg/mL stock of aprotinin to 1 mL intrinsic activator solution. 36.7 μL citrated whole blood that had been warmed to approximately 37° C. for three minutes was added and mixed. 5 μL of intrinsic activator solution with aprotinin that had been warmed to approximately 37° C. for one minute was added. The sample was mixed and read in the T2reader. The clotting time measurement was obtained after 5 minutes and then the platelet activity and fibrinolysis measurements were obtained over the following 60 minutes. In a separate assay the effects of the amounts of activator were tested.
# Platelet activity and fibrinolysis measurements for the 3 donor samples in the T2In assay are shown in FIG. 15a-15b. tPA levels of 0 nM, 2 nM or 4 nM were added to citrated whole blood. Blood samples (36.7 μL) were activated by addition of 5 μL ellagic acid solution with CaCl2. T2MR data was collected for 65 min. The addition of tPA cleaves the fibrin mesh of the clot and results in clot dissolution over time. This is detected by T2MR by the change in T2 value of the serum peak (third phase). […]
# [7] = ellagic acid with CaCl2, varying ReoPro concentrations
# [8] = tPA added 30 minutes after thrombin
Molecule,DiffT2 (citrated blood [1]),effect on % deltaT2 (citrated whole blood [2]; [7]),effect on T2MR measured clot time (citrated whole blood [2]; [7]),"platelet activity measurement (FIG. 27) (citrated whole blood [2]; intrinsic activator, 5 μg/mL and 10 μg/mL ReoPro)",TEG MA (citrated blood [3]),"200-300 ms signal after mixing ([4]; clotted with thrombin then lysed with tPA, mixed with a pipette)","T2 value of the upper peak after tPA addition [4, 8]","third peak at ~100 ms after tPA addition [4, 8]","T2 value of the middle peak after tPA addition ([4]; tPA added 30 minutes after thrombin, decreased from 250)",clotting time curves (% deltaT2) (citrated whole blood [5]),change in T2 value of the serum peak (third phase) (citrated whole blood [6])
B1,< 100 ms,no effect,no effect,inhibition of platelet activity,less than 40,,,,,,
B2,,,,,,disappeared altogether,decreased rapidly,persisted,175 ms,appear to overlay,larger change
